{"source": "a protein production outcome set (Wang et al. 2014)"}
{"assay": "label from the status in PepcDB records"}
{"sequence": "MSQRLILFSRYPEPGRSKTRLIPALGPEGAADLQRQLTEWTVFTAHCWQARSPQTEVLIATSGGTSEAWQQWLGAVEVQPQAEGDLGDRLHQAFQDSWQVGCDRTVIIGSDCPQIEPHHLDEAFAVLQQADVVIGPASDGGYWLIGLSQPQPQLFQNIDWGSDRVLVQTLEAAQVADLQVAQLESLSDLDRPEDLNLWQPQPQLSVIITTLNEAANLPQTLALIGDAPVETLVVDGGSQDATVAIAQAWGAKVIHSPAGRGRQFNQGAAAAHGNILLFLHGDTRLPPRFWEHVLQTLQPPQVVAGAFQLQIDSPDWRLRWIERGVRWRSHWLQQPYGDQALFLSRDRWRAIGGFSTGPLLEDYRFVRQLRRQGTIAIASAAVMTSARRWQRRGVLQTTLLNQLILLAHHCGVSDQQLARWYR", "protein production": "failed"}
{"sequence": "MSQSLIAALQNPALFPHPVESFQVIETHISWVLLTGPYAYKFKKPMNFGFLDFTTLALREHFCQEELRLNKRLTDDMYLEVLPITGTAQAPQLGGDGDVIEYALKMKQFSQDGLLSTLQANGELTTAHIDELARQIADFHLDSPHVTAESELGSPDSVMAPVVQNFEQIRPLISEKSDLEQLDALQAWAESSFERLKPLLAQRKADGFIRECHGDIHLGNATVIDGKVVLFDCIEFNEPFRKTDVYADIGFLAMDLEDRGLKSLSRRLVSQYLEVTGDYVGLELLNFYKAYRAMVRAKVALFSQPADADGVQRAATLRQYRNYANLAESYSAIPSRFLTITHGVSAVGKSHVAMRLVESLGAIRLRSDIERKRLFAEGGEDLYGDEASSATYARLHELAGKTLRAGFSVVIDATYLKREQRDAAAKVAENTGVPFLILDCEAPQAVIASWLAQRQAQNNDPSDATLQVIEAQQASRELLSADEVLCSKKVATNIGSDLDSLVDNLRQRLPGLLEHHHHHH", "protein production": "not failed"}
{"sequence": "MSRASVTIGARRNGAIKAAAHARIRPVANSSCLAISRQMQHRYTMFEPKPQNPALAAALIFAATAFIAGTTLLAKALGTGALGPALPALQISHGRFLFALAVILSIVAATRPRLSRPHWGLHLGRTSFGWAGVTLMFAAVAYIPMADATAIAFLNPVFGMLLAIPLLGERVGPWRWGAAVIALVGALILLRPTPGSFQPAALLALAAAAVMGMELIFIKKLAGRERPIQILLVNNAMGLAIASLAVWPVWQAPLPAQWAALAGIGLLMACAQICFVNGMARADASFVAPFSYGTLVFAALYDLAVFQVWPDAISLGGAAIILTGALTLAWREGRVRRP", "protein production": "failed"}
{"sequence": "MSRELKLRIVSAIVMAAVILAATWYGGILFRIVAGLLAILIYYEWSTITRMSETNSTGNAWGWFAVAVIAGNTIFGESSLDLPLLSGFTLTAALFPVLRGKNWWLVGGIFYAGLSGISLAAIRGDELAGFASILFIFAVVWSTDILAYFVGRAIGGPKLAPSISPGKTWSGAVGGAVAAVIGGAAVSMAYHGRISLLLVGLALVLSVFSQIGDLFESFVKRRFQVKDSSHLIPGHGGFMDRVDGLVFACFTVFLIAFVHAAATGDVPGSGGGLLPGF", "protein production": "failed"}
{"sequence": "MSRGGFCQTYFAVDECQSPPVPYVVQKLHDNEQLLDSFQQKAQYIEQLSQNSQLPTLLAYFRDQDNYYFVQEFIAGASLAQVVQEEGAFHETQVWQLLTNLLPILKLMSDRQLIHGDIKPENIIRQLTPDSTNLVLVDFGHVQIVSRTDQITDVQGVGSPEYAAPEQITGQAVFASDLYSLGVTCIHLLTLVSPFDLFDIANDCWVWQQYLTTKISDRLTKILNKLIQKSVHQRFQSADEVMQVMGIEGKILHYPPPPSPWQCLHTLTGYSTNSLAISPDGNKLASGGDDKIIRLWELNTQKLLACFSGHSQAVTSVSFSPQGEILATASDDKTIKLWHLPTSSEVFTLNGHTNPVKSVSFSPNGQILASGSWDKQVKLWDVTTGKEIYALKAHQLQVSAVAFSPQGEILASASFDRTIRLWQITQNHPRYTLIKTLSGHTRAVLAIAFSPDGKILATGSDDNTIKLWDINTGQLIATLLGHSWSVVAVTFTADNKTLISASWDKTIKLWKVSTTEEIVTLASHLDSVCAVAVNPVTQVIASSSRDKTIKLWQLVIQQN", "protein production": "failed"}
{"sequence": "MSRISVVIPAYNEASDLPQTIQGIRDLSLECEVIVVDDGSVDDTKKIAERLADITVALPVNQGKGQALMEGWKRAEGTHIVMLDADLGSTSSEMAHLLPPLLTNEADLVIGMLPTHSSKKGFGLVKKRAQQYIAKRTGAFLTAPLSGQRAFHRRWLPSLLEENVQGFGVETQMLLHFLLRGAVVKEIPTLMAHRYTGKTISGFIHRFQQWIDIERALRGSNTLEHHHHHH", "protein production": "not failed"}
{"sequence": "MSRMRVLRLRLYGVVFLAVLALLLSLSVAVYQQVFTPAVRIKLEADSLGNQLDPRADVKLRGLLVGEVRAVHADGTKATLDIALKPEYVASIPSDAHARLLPKTLFGEKYVDLVAPARSSARPIRAGDVITQDRTRVGIELQQLMNDLLPLLRTVQPGKLNATLSAFATALEGRGDRIGDNLTRVEDYLHRLNPHLPSLTEDFARLADVAEVYGDAAPDLMEILRNTVTTSRTLVEQRDRLASALTTTATAAGTADDFLDANGDRLITLGRVSRPTLDLFARYSPEYPCLFAGLVREEQASEQAFRGGKMHITLEVVRQQGAYEPGEYPRYDDRSGPNCRDLPHPPVPAPGVHLNDGSTKGSASGGPGGVSATRAEQRSVGSLVAPVLGVPADQVPPVATLLFGPMARGTAVSVA", "protein production": "failed"}
{"sequence": "MSRPDQAARRRAIAAELHVSPTFDARDEAERRIGFVADYLRTAGLRACVLGISGGIDSSTAGRLAQLAVERLRASGYDARFVAMRLPYGAQHDEADARRALAFVRADETLTVDVKPAADAMLAALAAGGLAYLDHAQQDFVLGNIKARERMIAQYAVAGARNGVVIGTDHAAESVMGFFTKFGDGGADVLPLAGLTKRRVRALARMLGADEPLVLKTPTADLETLRPQRPDEHAYGITYEQIDDFLEGKPMDDAVAETVLRFYDATRHKRALPYTMFDWPGHPA", "protein production": "not failed"}
{"sequence": "MSRPEGHTLRRRLAGVVFVLVPALLIWLAVAVYDKKFTDSDPVVVETGSAGNQMHPGAEVKLRGVVVGEVRAIDATGDGARLTLAMKPGALDDVPSDVRAQMLPTTLFGERFVALVPPANPSPEPLAAGAVVPQDRSANAIELQQVLDDVLPMLTAVQPQKLSATLSAVSQALEGRGERLGDTLTLLDEHLAEFNPNLPALNRDLKELVKVSHVYADAAPDVITALTDFTTTSGTLAEQEADLAATLGATTRTAEDVTAFLHKNKDNIIRLGDTSRPTLELLAEYSPAFPCTLRTLAEFVPAMDKALGKGTDRPGIHVDVTSVASRGAYRPGRDTPVYDSGGGPRCPSVPYLGALPRPTARTAAPAAEQDLGPANSPQENDLVNELLAPAAGKSPGDLPDWSSLLVGPVYRGTEVTLGLEHHHHHH", "protein production": "failed"}
{"sequence": "MSRPPVFPPPQFPPPRPRPFQRTPPAIFPPILGLLALGLGLRRAAEIWGLPAGLAEAVLGATTGLGAFAVAAYAAKVAQRPGVVIEDLRVLPGRAGLAALVLGLLVLAAVLVPYGPAAARAVLVAGLGLQTILAVTVAALLLSGPKEGRVVTPAFHLHFVGFIIGGLTAAPVGWPGLGTVLLAVCAPVAAAIWIASLVQFLRRVPPPPLRPLLAIHLAPAALLGLVAGQQELPLVAQLCAAAGGVLLLAFLASARWLLAGGFSPLWGALTFPLAAYAGLLLVVWPQAGAVLLAAAALVIPPIAAKILQEWAKGRLAVRTNAAQA", "protein production": "failed"}
{"sequence": "MSRQQARGALGRAWWLQLALALLPLILVEFFLGELQPLPHGLAMPLFIAALLSMFVNLPLFGAYKRGLIATQKALDTAEEAAAWTRLAQVRRKALFGASLPAWIGVPGVFAGLNGVALILLGVTSLVLFWLYRIPRQLG", "protein production": "failed"}
{"sequence": "MSRRAPMFKPLPITLQRGALRLEPLVEADIPELVSLAEANREALQYMDGPTRPDWYRQSLAEQREGRALPLAVRLGVQLVGTTRFAEFLPALPACEIGWTWLDQAQHGSGLNRMIKYLMLKHAFDNLRMVRVQLSTAASNLRAQGAIDKLGAQREGVLRNHRRLAGGRLDDTFVYSITDHEWPQVKAALEASFTG", "protein production": "not failed"}
{"sequence": "MSRRSNRTINLPAPYLKRIWLDPSQVHDREAYPFCLPIFPDDFELSFDAAITIIVGENGTGKSTILEGIAALAGYDDAGGGKGYMPVDHSDAREKMGGQLSKALRASWLPKITNGWFFRAESFFSVARYLDKAARDAGQVGPDFLSHSHGEGFLRFFEERCQRQGIFIFDEPESALSPARQIEFLKLLRRMDDSRICQVIMATHSPMLMAYPNAKLLRLGKYGLEPVTVEETDHYRLMREFCDDPRGFVEATLAELEHHHHHH", "protein production": "not failed"}
{"sequence": "MSRSGQPPDLKKYMDKKLQIKLNANRMVVGTLRGFDQFMNLVVDNTVEVNGDDKTDIGMVVIRGNSIVTVEALEPVGRS", "protein production": "failed"}
{"sequence": "MSRSLGIPVKLLHEASGHIVTVELKSGELYRGSMIECEDNWNCQLEDITYTAKDGKVSQLEHVFIRGSKVRFMVIPDILKHAPMFKRLDARIKGKSSSLGVGRGRGAMRGKPAAGPGRGTGGRGAVPPVRR", "protein production": "failed"}
{"sequence": "MSRSVLQPSQQKLAEKLTILNDRGVGMLTRLYNIKKACGDPKAKPSYLIDKNLESAVKFIVRKFPAVE", "protein production": "failed"}
{"sequence": "MSRTVMCRKYHEELPGLDRPPYPGAKGEDIYNNVSRKAWDEWQKHQTMLINERRLNMMNAEDRKFLQQEMDKFLSGEDYAKADGYVPPSA", "protein production": "not failed"}
{"sequence": "MSRVSLPHDAKAGPTKPEVRAVLASKLALTGSDHFAEVGSCTGAVTITAARRAGRVTALERKGNRLDVTRKNLAANDVDADVELREAEAPEGLPDDADVLFLGGSRNYEAILDHAVETGVDRIVMNVSRLEVAGAATEAFRERDILEEVVQFQVSHGYELAGATSFNSENPVYMLVGSASEDVAADGGSPTETEATDGGQR", "protein production": "failed"}
{"sequence": "MSSAIRKAAKGGQCTPNIAGVCNDNPETVVLCRFPGETHGAGLKSGGLGAGFGCGCRRGAIDGRGAGLSREDKEFYMRRSQLRTIRRLEALGVVGVKGRLK", "protein production": "failed"}
{"sequence": "MSSEEDYFDELEYDLADEVNEEKEDIQTKKLTTVNCQTEKFNPFEILPESIELFRTLALISPDRLSLSETAQILPKIVDLKRILQQQEIDFIKLLPFFNEIIPLIKSNIKLMHNFLISLYSRRFPELSSLIPSPLQYSKVISILENENYSKNESDELFFHLENKAKLTREQILVLTMSMKTSFKNKEPLDIKTRTQILEANSILENLWKLQEDIGQYIASKISIIAPNVCFLVGPEIAAQLIAHAGGVLEFSRIPSCNIASIGKNKHLSHELHTLESGVRQEGYLFASDMIQKFPVSVHKQMLRMLCAKVSLAARVDAGQKNGDRNTVLAHKWKAELSKKARKLSEAPSISETKALPIPEDQPKKKRAGRKFRKYKEKFRLSHVRQLQNRMEFGKQEQTVLDSYGEEVGLGMSNTSLQQAVGATSGSRRSAGNQAKLTKVMKHRISEANQQADEFLISLGHNTEQPNLSPEMVQMHKKQHTNPEEETNWFSGHG", "protein production": "failed"}
{"sequence": "MSSEGRNHNWDYAAIGTPEDFLASWSASRGNLRRFFEDHAAAPINDAAQRQAGEAAATQAVAAIYGMELNEFNAGVDAVAGAIESAGAIHVSIPDPDVPQDVGAAAFFDVDNTLIQGSSLIVFAQGLFRKKFFTIKEILPVVWKQVKFKLTGSENAEDVSRGREQALEFIKGRPVQELVDLCEEIVDQRMADKMWPGTKQLADMHIAAGHQVWLVSATPVQLAQILAQRLGFTGAIGTVAEAKDGVFTGRLVGDILHGPGKRHAVAALASIEQLDLTRCTAYSDSINDLPMLSMVGTAVAVNPDSKLRKEAETRGWDVRDFRSIRKATREYGIPALVTAAFSVAGWRLRRRWRKQ", "protein production": "failed"}
{"sequence": "MSSEKERKKKIFFQRILTVVFLGTFFYSVYELGDIFMDYYENRKVMAEAQNIYEKSPMEEQSQDGEVRKQFKALQQINQEIVGWITMDDTQINYPIVQAKDNDYYLFRNYKGEDMRAGSIFMDYRNDVKSQNRNTILYGHRMKDGSMFGSLKKMLDEEFFMSHRKLYYDTLFEGYDLEVFSVYTTTTDFYYIETDFSSDTEYTSFLEKIQEKSLYKTDTTVTAGDQIVTLSTCDYALDPEAGRLVVHAKLVKRQ", "protein production": "not failed"}
